The assay deals with T1, Apo REV-ERBβ LBD (Homo sapiens, UniProt Q14995).
T1 construct: The human REV-ERBβ LBD (residues 381 to 579) was previously cloned; 6xHis with 3C protease cleavage site (N, cleaved yes); made in house; host or cells: E. coli BL21(DE3)
T1 sequence (Q14995 381-579): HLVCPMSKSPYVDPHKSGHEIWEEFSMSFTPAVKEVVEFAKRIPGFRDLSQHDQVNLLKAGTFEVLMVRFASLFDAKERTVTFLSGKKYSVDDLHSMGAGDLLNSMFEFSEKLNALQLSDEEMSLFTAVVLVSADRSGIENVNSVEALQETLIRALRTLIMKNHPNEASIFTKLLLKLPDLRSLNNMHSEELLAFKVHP
Kind of assay: ITC, NCoR RID constructs with apo REV-ERBβ LBD. It counts as binding. The settings on record: WT RID; for Kd: LBD 150 μM (2 × 20 injections) into 15 μM RID, pH 7.4, 25°C, two nonsymmetric sites, microscopic K model. How it is done: Human REV-ERBβ LBD was expressed in BL21(DE3) Escherichia coli cells with an N-terminal hexahistidine (6xHis) tag separated by a 3C protease cleavage site. Expression was performed using auto-induction media: Cells were grown at 37°C for 5 hours, 30°C for 1 hour, and 18°C for 16 hours before harvesting by centrifugation. Pellets were resuspended in potassium phosphate lysis buffer [40 mM potassium phosphate (pH 7.4), 500 mM KCl, 15 mM imidazole, and 1 mM dithiothreitol (DTT)] supplemented with leupeptin, pepstatin A, lysozyme, and deoxyribonuclease (DNase) I and sonicated on ice. […] A 5-ml aliquot of 6xHis-tagged protein was purified by size exclusion chromatography using a Superdex 75 column equilibrated in time-resolved fluorescence energy transfer (TR-FRET) assay buffer [20 mM potassium phosphate (pH 7.4), 50 mM KCl, and 0.5 mM EDTA]; purified aliquots were stored at −80°C for TR-FRET assays. To cleave the 6xHis tag from the remaining protein, it was incubated overnight with 3C protease (generated in-house) via dialysis; then, protein was reloaded onto the HisTrap columns, and the flow-through was collected. Last, aggregates were removed by size exclusion chromatography using a Superdex 75 column and Hepes gel filtration buffer [20 mM Hepes (pH 7.4), 50 mM KCl, and 0.5 mM EDTA]. Greater than 95% purity was confirmed by SDS-PAGE. Protein was aliquoted and stored at −80°C.
ITC experiments were performed using a MicroCal iTC200. All experiments were solvent-matched and contained 0.1% DMSO (peptide vehicle) and 0.2% 0.2 M solution of NaOH (heme vehicle) final concentrations. NITPIC software ([37]) was used to calculate baselines and integrate curves and prepare experimental data for fitting in SEDPHAT, which was used to generate final binding affinity and thermodynamic parameter measurements ([38]).Final figures were exported to GUSSI for publication-quality figure preparation ([39]).
[…] REV-ERBβ LBD in the syringe was titrated into the RID in the sample cell as described above, with the exception that a total of 4 molar equivalents were titrated over 20 injections. […] For apo LBD into WT RID, data were fit to A + B ↔ AB + B ↔ BA + A ↔ BAB, with two nonsymmetric sites, microscopic K model in SEDPHAT. For apo LBD into ΔID2, data were fit to an A + B ↔ AB hetero-association model in SEDPHAT. For heme-bound LBD into WT RID, data were fit to an A + B ↔ AB hetero-association model in SEDPHAT.
NCoR RID constructs (including WT, ΔID1, ΔID2, and ΔID1ΔID2) were transformed into BL21(DE3) E. coli cells, which were grown in 2 liters of Terrific Broth media [yeast extract (24 g/liter), tryptone (12 g/liter), KH2PO4 ([…]), K2HPO4 ([…]), and glycerol (4 ml/liter)] at 37°C until OD600 reached 0.7 to 0.8. Expression was induced with 0.75 mM IPTG for 2 hours at 37°C before cells were harvested by centrifugation. Pellets were washed 1× with phosphate-buffered saline and stored at −80°C until purification. Pellets were resuspended on ice in Hepes lysis buffer [25 mM Hepes (pH 7.4), 150 mM NaCl, 2 M urea, and 15 mM imidazole] supplemented with 1 mM DTT, pepstatin A, leupeptin, lysozyme, DNase I, phenylmethylsulfonyl fluoride, and 0.1% Tween 20, and cell slurry was sonicated on ice. Lysed cells were centrifuged at 20,000g for 30 min at 4°C, and soluble lysate was filtered before IMAC purification using 2 × 5 ml HisTrap columns (GE Healthcare) affixed to an ÄKTA pure; elution buffer was 25 mM Hepes (pH 7.4), 150 mM NaCl, and 500 mM imidazole. Fractions were pooled; additional protease inhibitors were added, and protein was dialyzed against 25 mM Hepes (pH 7.0), 150 mM NaCl, and 1 mM DTT with Tobacco etch virus (TEV) protease to cleave the Trx-6xHis tag at 4°C overnight. Cleaved protein was reloaded on HisTrap columns and eluted with 50 mM bis-tris (pH 6.7), 150 mM NaCl, and 1 mM DTT. […]

Like-named read-outs stand apart in the source and are kept apart here.

B1: WT RID: mouse NCoR RID (residues 1942 to 2208 in the X50 splice variant) (protein, UniProt Q60974 1942-2208, looked up, fragment)
chain: TITAANFIDVIITRQIASDKDARERGSQSSDSSSSLSSHRYETASDAIEVISPASSPAPPQEKPQAYQPDMVKANQAENESTRQYEGPLHHYRSQQESPSPQQQPPLPPSSQSEGMGQVPRTHRLITLADHICQIITQDFARNQVPSQASTSTFQTSPSALSSTPVRTKTSSRYSPESQSQTVLHPRPGPRVSPENLVDKSRGSRPGKSPERSHIPSEPYEPISPPQGPAVHEKQDSMLLLSQRGVDPAEQRSDSRSPGSISYLPSF
modifications: X50 splice variant
For orientation: Kd means the concentration at which binding is half-saturated. Turning to B1, the “LBD:RID stoichiometry” value is “two apo LBDs interact with one RID, most likely with positive cooperativity”. Besides, the Kd (95% CI, read-out: KD, Site 1) was determined as 0.012 µM. The Kd (95% CI, read-out: KD, Site 2) was found to be 0.74 µM. For the same molecule, for the setting “site 1, 25°C, 95% CI”, the “TΔS, Site 1” value turned out to be 10.5 kJ/mol; the “ΔG, Site 1” value is -45.2 kJ/mol; the “ΔH, Site 1” value was -34.7 kJ/mol. For the same molecule, where the note is “site 2, 25°C, 95% CI”, the “TΔS, Site 2” value is 12 (95% CI: 11 to13) kcal/mol; the “ΔG, Site 2” value is -35.1 kJ/mol; the “ΔH, Site 2” value was determined as 13.4 kJ/mol.

These data come from PMC7840129, “Structural basis for heme-dependent NCoR binding to the transcriptional repressor REV-ERBβ” (Science Advances, 2021).
